From PMC3173395, “Characterization of the latent membrane protein 1 signaling complex of Epstein-Barr virus in the membrane of mammalian cells with bimolecular fluorescence complementation” (Virology Journal, 2011)

Molecular target: T1, A5-Y384G-NYFP (full-length LMP1 with mutations in CTAR1 and CTAR2, NYFP at the C-terminus) (Epstein-Barr virus, B95-8 strain, UniProt P03230 1-386, amino acids 204-208 PQQAT mutated to AAAAA | Y384G)
T1 sequence: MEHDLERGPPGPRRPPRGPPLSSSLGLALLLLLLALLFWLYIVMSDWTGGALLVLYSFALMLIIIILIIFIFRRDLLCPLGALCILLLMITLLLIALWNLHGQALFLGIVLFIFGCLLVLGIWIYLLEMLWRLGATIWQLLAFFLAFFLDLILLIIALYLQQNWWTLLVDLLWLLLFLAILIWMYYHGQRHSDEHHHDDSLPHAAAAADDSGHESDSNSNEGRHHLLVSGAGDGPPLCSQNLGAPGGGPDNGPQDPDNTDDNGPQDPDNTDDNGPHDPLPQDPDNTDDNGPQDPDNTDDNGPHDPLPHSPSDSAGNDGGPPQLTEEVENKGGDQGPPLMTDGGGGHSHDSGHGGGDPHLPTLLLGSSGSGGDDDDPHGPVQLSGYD
Experiment: cell-based or functional assay

B1: CYFP-TRAF2 (CYFP fused to the amino-terminus of TRAF2, amino acids 98-501) (domain or fragment)
chain: REVESLPAVCPSDGCTWKGTLKEYESCHEGRCPLMLTECPACKGLVRLGEKERHLEHECPERSLSCRHCRAPCCGADVKAHHEVCPKFPLTCDGCGKKKIPREKFQDHVKTCGKCRVPCRFHAIGCLETVEGEKQQEHEVQWLREHLAMLLSSVLEAKPLLGDQSHAGSELLQRCESLEKKTATFENIVCVLNREVERVAMTAEACSRQHRLDQDKIEALSSKVQQLERSIGLKDLAMADLEQKVLEMEASTYDGVFIWKISDFARKRQEAVAGRIPAIFSPAFYTSRYGYKMCLRIYLNGDGTGRGTHLSLFFVVMKGPNDALLRWPFNQKVTLMLLDQNNREHVIDAFRPDVTSSSFQRPVNDMNIASGCPLFCPVSKMEAKNSYVRDDAIFIKAIVDLTGL
- NF-kB luciferase reporter activity in HEK-293T cells transfected with A5-Y384G-NYFP + A5-Y384G-CYFP (A5-Y384G BiFC), fold above vector; about 50% of LMP1 and LMP1-BiFC: ~22 fold
